Reference: PMC4140853 (PLoS Pathogens, 2014)
Positions count from the first letter of the chain named. In names and notes the source's numbering stands.

B1: EBV gp42 I159C (C114S/I159C), reduced with TCEP and alkylated with iodoacetamide (IAA) (natural protein)
chain: GGGRVAAAAITWVPKPNVEVWPVDPPPPVNFNKTAEQEYGDKEVKLPHWTPTLHTFQVPQNYTKANCTYCNTREYTFSYKGSCFYFTKKKHTWNGCFQACAELYPCTYFYGPTPDILPVVTRNLNACESLWVGVYRVGEGNWTSLDGGTFKVYQIFGSHCTYVSKFSTVPVSHHECSFLKPCLCVSQRSNS
modifications: introduced cysteine 159 reduced with TCEP and alkylated with iodoacetamide (IAA)
B2: EBV gp42 wild type, soluble (residues 33-223) (natural protein)
chain: B1 chain with S82C, C127I
notes: also called gp42 w.t; wt gp42; source: High Five insect cells (baculovirus), secreted, purified (Talon or Ni-NTA, Superdex 200)
B3: EBV gp42 C114S single mutant, soluble (residues 33-223) (natural protein)
chain: B1 chain with C127I
notes: source: High Five insect cells (baculovirus), secreted, purified (Talon or Ni-NTA, Superdex 200)
B4: EBV gp42 C114S/I159C double mutant (referred to as I159C), soluble (residues 33-223) (natural protein)
chain: B1 chain
notes: as for B3

Legend:
[1] = target: HLA-DQ2 (A1*0501/B1*0201) with the CLIP1 peptide covalently linked to the beta chain, soluble, Fos-Jun leucine zipper; assay: BLI
[2] = target: HLA-DQ2 (A1*0501/B1*0201) with the CLIP1 peptide covalently linked to the beta chain, soluble, Fos-Jun leucine zipper; assay: BLI; Octet RED96; site-specifically biotinylated HLA-DQ2 (CLIP1) immobilised on streptavidin (SA) tips; analyte gp42 or preformed gHgL/gp42 complex; equilibrium (steady state) analysis of the same data
[3] = target: T1, EBV gHgL (soluble gH residues 18-679 / gL residues 24-137 heterodimer) (Epstein-Barr virus, UniProt P03231;P03212); assay: cell-based or functional assay
[4] = target: T1, EBV gHgL (soluble gH residues 18-679 / …); assay: BLI; conditions: both partners purified
[5] = target: T1, EBV gHgL (soluble gH residues 18-679 / …); assay: BLI; conditions: both partners purified; remark: listed apart in the source
[6] = target: T1, EBV gHgL (soluble gH residues 18-679 / …); assay: BLI; Octet RED96; biotinylated gHgL immobilised on streptavidin (SA) tips, soluble gp42 as analyte; equilibrium analysis of the same data; conditions: both partners purified
[7] = target: T1, EBV gHgL (soluble gH residues 18-679 / …); assay: SEC; Superdex 200 gel filtration of purified proteins and their mixtures; 20 mM Tris, 150 mM NaCl, pH 7.4; peak components verified by SDS-PAGE (data not shown); conditions: both partners purified

Molecule	KD1 (2:1 heterogeneous ligand fit, primary component) [1] [nM]	KD2 (2:1 heterogeneous ligand fit, secondary component) [1] [nM]	Kd [2] [nM]	Kd [5] [nM]	Kd [6] [nM]	koff [5] [s⁻¹]	kon [5] [M⁻¹ s⁻¹]	further results
EBV gp42 C114S/I159C double mutant (referred to as I159C), soluble (residues 33-223) (from UniProt P03205 33-223) (natural protein)	59	1.25	29	–	–	–	–	–
EBV gp42 C114S single mutant, soluble (residues 33-223) (from UniProt P03205 33-223) (natural protein)	88.8	3.45	97	–	–	–	–	–
B1	–	–	–	–	–	–	–	virus-free cell-cell fusion (luciferase) of CHO cells expressing gB and gHgL with Daudi B cells, triggered by 0.1 or 1.0 µg soluble gp42 protein; activity relative to wt gp42 [3]: < 10 % of wild type
B2	–	–	–	1.41	4.1	–	–	t1/2 for dissociation [4]: ~30 min; stoichiometry N [7]: 1 gp42 per gHgL
B3	–	–	–	1.29	6.3	0.000529	409000	–
B4	–	–	–	0.77	13	0.000295	381000	–
